Source: article PMC5913134, “The IL-33-PIN1-IRAK-M axis is critical for type 2 immunity in IL-33-induced allergic airway inflammation” (Nature Communications, 2018)
Where no end group is shown, it is not given here. [ ]: non-standard residue; d: D form. pS = N[C@@H](COP(=O)(O)O)C(=O)O

Target: T1, 15N-labeled PIN1 WW domain (PIN1 residues 1-50) (UniProt Q13526 1-50)
T1 construct: PIN1 residues 1-50 (WW domain); The methods describe a pET28 His6-TEV construct for PIN1; also called 15N-PIN1-WW; source: expressed and purified, 15N-labeled
Experiment: NMR titration; 1H-15N HSQC of 15N-PIN1-WW at constant concentration, peptide serially diluted (reverse titration), 25 °C, 600 MHz; fit to a simple bimolecular model; apparent
Details: both partners purified

T1 sequence (Q13526 1-50): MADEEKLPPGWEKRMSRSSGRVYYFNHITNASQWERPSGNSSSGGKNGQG

B1: IRAK-M-pS110 peptide (IRAK-M residues 103-124 with Ser110 phosphorylated) (peptide)
peptide: TNYGAVL[pS]PSEKSYQEGGFPNI
notes: IRAK-M (IRAK3) residues 103-124; also called IRAK-M phosphopeptide; pIRAK-M-pS110; source: synthetic peptide (Tufts University Core Facility)
Kd: 60.7 µM
